Experimental data from patent US20070031863A1.

Target: CD70 (human) (UniProt P32970)
Experiment: cell-based or functional assay

CD70 (human), sequence (P32970 whole entry): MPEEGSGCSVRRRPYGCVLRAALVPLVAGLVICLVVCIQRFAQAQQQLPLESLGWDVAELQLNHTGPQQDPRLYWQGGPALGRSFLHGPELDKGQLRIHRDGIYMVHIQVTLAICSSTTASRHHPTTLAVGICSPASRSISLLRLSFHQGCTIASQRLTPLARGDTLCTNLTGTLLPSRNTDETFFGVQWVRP

IgG synthesis by purified B cells stimulated with LPS (control): 125 µg/mL
Substance: anti-CD70 monoclonal antibody (HNE51) (Dako)
